Measured values as given in patent publication EP4793641A1, “NOVEL METHOD FOR ANALYZING BIOMOLECULAR INTERACTIONS” (Kyoto University, priority 2023, dated 2025).
No end group written: not given here. *: point of attachment. 5FAM = O=C1OC2(c3ccc(O)cc3Oc3cc(O)ccc32)c2ccc(C(=O)*)cc21

molecular target: Talin 1 (TLN1) (UniProt Q9Y490); test: flip-flop luminescence detection on DNA origami, inhibition of the TLN1-ITGB complex
Sequence (Q9Y490 1-405): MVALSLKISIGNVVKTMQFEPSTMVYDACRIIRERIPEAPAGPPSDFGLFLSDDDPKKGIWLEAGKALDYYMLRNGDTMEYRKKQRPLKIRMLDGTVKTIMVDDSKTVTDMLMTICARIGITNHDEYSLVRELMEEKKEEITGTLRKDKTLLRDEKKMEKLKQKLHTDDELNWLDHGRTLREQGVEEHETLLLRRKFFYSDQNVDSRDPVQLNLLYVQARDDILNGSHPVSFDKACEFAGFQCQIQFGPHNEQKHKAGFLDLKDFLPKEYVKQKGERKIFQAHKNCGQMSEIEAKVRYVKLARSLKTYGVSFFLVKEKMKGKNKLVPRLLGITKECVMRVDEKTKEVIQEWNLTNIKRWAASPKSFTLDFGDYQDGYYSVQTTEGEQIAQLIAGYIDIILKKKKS

| Binder | IC50 [µM] |
| --- | --- |
| 5FAM-KFEKEKMNCKWMT [FIYM21] | 38.1 |
| RFEKEKMMCKWMT [FIYM31] | 1040 |
| DFEKEKMNCKWMT [FIYM52] | 8130 |
| EFEKEKMNCKWMT [FIYM53] | 42000 |
| KYEKEKMNAKWDT [FIYM50] | 1860 |
| KYEKEKMNCKWMT [FIYM51] | 1830 |
| KFEKEKMNC(Me)KWMT [FIYM44] | 1070 |
